Patent US20140017764
Numbering of substitutions follows the chain as printed.

How the values were obtained:
[1] = test system: T1, HCV-P preferred substrate construct (DEMEECASHL)
T1 sequence: DEMEECASHL

[2] = target: T2, Aga2 substrate fusion polypeptide with HCV-P counter selection sequence and TEV-P selection substrate ENLYFQS
T2 chain: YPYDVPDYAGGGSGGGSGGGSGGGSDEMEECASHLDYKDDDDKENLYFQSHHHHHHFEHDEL

[3] = target: T3, TENLYFESGTRRW peptide substrate
T3 chain: TENLYFESGTRRW

[4] = target: T4, TENLYFHSGTRRW peptide substrate
T4 chain: TENLYFHSGTRRW

[5] = target: T5, human granzyme K preferred substrate construct (CGYGPKKKRKVGG)
T5 chain: CGYGPKKKRKVGG

[6] = target: human AblTK preferred substrate construct

**Q.** Which “YESS two-color FACS (PE / FITC)” value [1] does the source give for hepatitis C protease (HCV-P) here?
**A.** Its value is “displayed relatively similar PE but low FITC signals by FACS compared to the controls lacking proteases”.

B1: TEV-P anchored with a C-terminal ER retention sequence, expressed in the yeast ER (protein)
chain: SLFKGPRDYNPISSTICHLTNESDGHTTSLYGIGFGPFIITNKHLFRRNNGTLLVQSLHGVFKVKNTTTLQQHLIDGRDMIIIRMPKDFPPFPQKLKFREPQREERICLVTTNFQTKSMSSMVSDTSCTFPSSDGIFWKHWIQTKDGQCGSPLVSTRDGFIVGIHSASNFTNTNNYFTSVPKNFMELLTNQEAQQWVSGWRLNADSVLWGGHKVFMPKPEEPFQPVKEATQLMNFEHDEL
**Q.** For B1, which “YESS two-color FACS (anti-FLAG-PE / anti-6xHis-FITC)” value [2] is on record?
**A.** Its value is “high PE but low FITC fluorescence”.

B2: TEV-PE10, purified (protein)
chain: HHHHHHSLFKGPRDYNPISSTICHLTNESDGHTTSLYGIGFGPFIITNKHLFRRNNGTLLVQSLHGVFKVKNTTTLQQHLIDGRDMIIIRMPKDFPPFPQKLKFREPQREERICLVTTNFQTKRMSSMVSDTSCTFPSSDGIFWKHWIQTKRGQCGSPLVSTRDGFIVGIHSASNFANTNKYFTSVPKNFMELLTNQEAQQWVSGWRLNADSVLWGGHKVFIPKPEEPFQPVKEATQLMN
**Q.** B2 was tested. Which KM [3] did it give?
**A.** The KM was 12.8 µM.

**Q.** And the “fold higher kcat/KM on TENLYFESGTRRW versus […]” value [3]?
**A.** The value was 13-fold higher kcat/KM value.

**Q.** And the kcat [3]?
**A.** The kcat was 0.0255 s⁻¹.

**Q.** And the kcat/KM [3]?
**A.** The kcat/KM was 2060 M⁻¹ s⁻¹.

**Q.** What about the “reversal of substrate specificity compared to TEV-P” value [3] of the same molecule?
**A.** Its value is 5000-fold reversal of substrate specificity compared to TEV-P.

B3: wild-type TEV protease (TEV-P), purified (protein)
chain: B2 chain with R124S, R152D, A177T, K181N, I222M
**Q.** Which KM [4] does the source give for B3 here?
**A.** The KM was 640 µM.

**Q.** What about the “fold by which kcat/KM on […] exceeds kcat/KM on TENLYFHSGTRRW” value [4] of the same molecule?
**A.** Its value is 150-fold.

**Q.** And the kcat [4]?
**A.** The kcat was 0.00493 s⁻¹.

**Q.** And the kcat/KM [4]?
**A.** Its kcat/KM is 7.55 M⁻¹ s⁻¹.

**Q.** What about the KM [3] of the same molecule?
**A.** The KM was 1930 µM.

**Q.** And the “fold by which kcat/KM on […] exceeds kcat/KM on TENLYFESGTRRW” value [3]?
**A.** The value was 375-fold.

**Q.** What about the kcat [3] of the same molecule?
**A.** The kcat was 0.00609 s⁻¹.

**Q.** And the kcat/KM [3]?
**A.** Its kcat/KM is 3.14 M⁻¹ s⁻¹.

B4: TEV-PH21, purified (protein)
chain: B2 chain with T21A, R124S, T150A, R152P, S157C, S172T, S174A, K181N, I222M
**Q.** Which results are given for B4?
**A.** KM [4]: 250 µM; fold higher kcat/KM on TENLYFHSGTRRW versus […] [4]: 7 fold; kcat [4]: 0.0375 s⁻¹; kcat/KM [4]: 150 M⁻¹ s⁻¹; reversal of substrate specificity compared to TEV-P [4]: 1100-fold reversal of substrate specificity compared to TEV-P

B5: human granzyme K protease (GrK) (protein)
chain: IIGGKEVSPHSRPFMASIQYGGHHVCGGVLIDPQWVLTAAHCQYRFTKGQSPTVVLGAHSLSKNEASKQTLEIKKFIPFSRVTSDPQSNDIMLVKLQTAAKLNKHVKMLHIRSKTSLRSGTKCKVTGWGATDPDSLRPSDTLREVTVTVLSRKLCNSQSYYNGDPFITKDMVCAGDAKGQKDSCKGDSGGPLICKGVFHAIVSGGHECGVATKPGIYTLLTKKYQTWIKSNLVPPHTN
**Q.** B5 was tested. Which “YESS two-color FACS (PE / FITC)” value [5] did it give?
**A.** Its value is “displayed relatively similar PE but low FITC signals by FACS compared to the controls lacking proteases”.

B6: human Abelson tyrosine kinase (AblTK) (protein)
chain: SPNYDKWEMERTDITMKHKLGGGQYGEVYEGVWKKYSLTVAVKTLKEDTMEVEEFLKEAAVMKEIKHPNLVQLLGVCTREPPFYIITEFMTYGNLLDYLRECNRQEVNAVVLLYMATQISSAMEYLEKKNFIHRDLAARNCLVGENHLVKVADFGLSRLMTGDTYTAHAGAKFPIKWTAPESLAYNKFSIKSDVWAFGVLLWEIATYGMSPYPGIDLSQVYELLEKDYRMERPEGCPEKVYELMRACWQWNPSDRPSFAEIHQAFETMFQESSISDEVEKELGK
**Q.** For B6, which “YESS FACS (Alexa Fluor 647 anti-phosphotyrosine / anti-6xHis-FITC)” value [6] is on record?
**A.** The value was “displayed relatively similar FITC but high Alexa Fluor@647 signals by FACS”.
